Data taken from PMC9482650, “Quantitative fragmentomics allow affinity mapping of interactomes” (Nature Communications, 2022).

Columns and labels:
Experiment in all cases: holdup assay
Design in all cases: key: below the threshold = too weak to quantify, mostly under pKd 3.1 to 4
Conditions in all cases: plain residues with an end cap or a label only (N-terminal biotin on a linker: ado-ado)
APBA3_1, O96018 = target: T1, APBA3_1, O96018
T1 sequence (O96018 389-490, limits assumed, looked up): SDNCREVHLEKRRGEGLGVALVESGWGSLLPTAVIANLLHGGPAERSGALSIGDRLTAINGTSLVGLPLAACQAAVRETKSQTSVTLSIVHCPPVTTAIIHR

DFNB31_1, Q9P202 = target: T2, DFNB31_1, Q9P202
T2 sequence (Q9P202 135-233, limits assumed, looked up): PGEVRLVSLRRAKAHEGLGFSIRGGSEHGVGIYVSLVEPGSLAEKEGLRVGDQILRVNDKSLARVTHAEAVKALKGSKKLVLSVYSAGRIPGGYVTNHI

DLG2_2, Q15700 = target: DLG2_2, Q15700
DLG3_3, Q92796 = target: T3, DLG3_3, Q92796
T3 sequence (Q92796 374-475, limits assumed, looked up): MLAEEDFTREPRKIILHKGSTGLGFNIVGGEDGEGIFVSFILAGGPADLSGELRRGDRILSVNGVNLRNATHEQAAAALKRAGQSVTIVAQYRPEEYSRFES

DVL3, Q92997 = target: T4, DVL3, Q92997
T4 sequence (Q92997 244-331, limits assumed, looked up): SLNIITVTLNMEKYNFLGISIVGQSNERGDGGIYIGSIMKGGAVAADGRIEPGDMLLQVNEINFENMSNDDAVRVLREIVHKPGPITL

FRMPD2_1, Q68DX3 = target: FRMPD2_1, Q68DX3
GORASP1, Q9BQQ3 = target: GORASP1, Q9BQQ3
GORASP2, Q9H8Y8 = target: GORASP2, Q9H8Y8
GRIP2_6, Q9C0E4 = target: GRIP2_6, Q9C0E4
IL16_1, Q14005 = target: IL16_1, Q14005
Inadl_1, Q8NI35 = target: Inadl_1, Q8NI35
Inadl_3, Q8NI35 = target: Inadl_3, Q8NI35
Inadl_4, Q8NI35 = target: Inadl_4, Q8NI35
LRRC7, Q96NW7 = target: T5, LRRC7, Q96NW7
T5 sequence (Q96NW7 1440-1537, limits assumed, looked up): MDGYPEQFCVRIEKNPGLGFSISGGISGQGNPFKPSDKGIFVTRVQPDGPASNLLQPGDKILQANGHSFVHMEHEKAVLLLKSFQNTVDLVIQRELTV

MPDZ_10, O75970 = target: T6, MPDZ_10, O75970
T6 sequence (O75970 1624-1722, limits assumed, looked up): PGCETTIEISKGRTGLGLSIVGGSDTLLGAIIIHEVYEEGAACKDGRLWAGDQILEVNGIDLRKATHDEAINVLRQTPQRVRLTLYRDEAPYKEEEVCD

MPDZ_5, O75970 = target: T7, MPDZ_5, O75970
T7 sequence (O75970 695-796, limits assumed, looked up): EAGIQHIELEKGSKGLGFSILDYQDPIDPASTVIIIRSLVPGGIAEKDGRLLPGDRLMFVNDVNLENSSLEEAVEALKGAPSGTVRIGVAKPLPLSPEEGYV

MPP7, Q5T2T1 = target: T8, MPP7, Q5T2T1
T8 sequence (Q5T2T1 134-230, limits assumed, looked up): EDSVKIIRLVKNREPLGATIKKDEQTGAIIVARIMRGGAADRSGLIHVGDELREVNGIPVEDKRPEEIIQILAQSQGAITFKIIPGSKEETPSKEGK

NHERF4_1, Q86UT5-2 = target: NHERF4_1, Q86UT5-2
NHERF4_4, Q86UT5 = target: NHERF4_4, Q86UT5
PDLIM1, O00151 = target: PDLIM1, O00151
PDZRN3_1, Q9UPQ7 = target: T9, PDZRN3_1, Q9UPQ7
T9 sequence (Q9UPQ7 244-349, limits assumed, looked up): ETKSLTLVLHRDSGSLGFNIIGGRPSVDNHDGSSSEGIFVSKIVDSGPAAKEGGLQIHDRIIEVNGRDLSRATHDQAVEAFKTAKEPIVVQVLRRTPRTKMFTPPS

RHPN1, Q8TCX5 = target: T10, RHPN1, Q8TCX5
T10 sequence (Q8TCX5 508-602, limits assumed, looked up): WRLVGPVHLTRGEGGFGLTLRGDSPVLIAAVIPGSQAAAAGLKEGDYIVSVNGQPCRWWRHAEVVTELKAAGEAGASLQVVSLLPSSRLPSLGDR

SCRIB_1, Q14160 = target: SCRIB_1, Q14160
SCRIB_3, Q14160 = target: SCRIB_3, Q14160
SNTB1, Q13884 = target: T11, SNTB1, Q13884
T11 sequence (Q13884 107-205, limits assumed, looked up): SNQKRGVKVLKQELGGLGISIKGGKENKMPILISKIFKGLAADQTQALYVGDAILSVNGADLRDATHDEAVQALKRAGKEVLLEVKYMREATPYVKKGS

TJP1_2, Q07157 = target: TJP1_2, Q07157
Chain of TJP1_2, Q07157 (Q07157 181-274): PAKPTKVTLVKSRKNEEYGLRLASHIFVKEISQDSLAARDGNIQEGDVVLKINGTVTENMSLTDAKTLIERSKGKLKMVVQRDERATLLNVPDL

Chain of DLG2_2, Q15700 (Q15700 189-283): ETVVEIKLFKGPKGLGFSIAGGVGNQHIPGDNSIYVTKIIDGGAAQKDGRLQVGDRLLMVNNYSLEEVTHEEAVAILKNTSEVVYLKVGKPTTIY
Chain of SCRIB_3, Q14160 (Q14160 999-1103): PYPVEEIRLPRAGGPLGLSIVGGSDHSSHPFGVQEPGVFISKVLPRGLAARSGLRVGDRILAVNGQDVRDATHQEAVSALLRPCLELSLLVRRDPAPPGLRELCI
Chain of GRIP2_6, Q9C0E4 (Q9C0E4 648-740): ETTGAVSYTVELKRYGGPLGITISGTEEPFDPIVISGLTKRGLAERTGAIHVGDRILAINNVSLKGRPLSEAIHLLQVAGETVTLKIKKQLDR
Chain of SCRIB_1, Q14160 (Q14160 718-814): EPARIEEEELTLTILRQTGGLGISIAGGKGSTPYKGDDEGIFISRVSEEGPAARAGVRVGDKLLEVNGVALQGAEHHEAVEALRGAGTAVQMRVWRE
Chain of GORASP1, Q9BQQ3 (Q9BQQ3 1-208): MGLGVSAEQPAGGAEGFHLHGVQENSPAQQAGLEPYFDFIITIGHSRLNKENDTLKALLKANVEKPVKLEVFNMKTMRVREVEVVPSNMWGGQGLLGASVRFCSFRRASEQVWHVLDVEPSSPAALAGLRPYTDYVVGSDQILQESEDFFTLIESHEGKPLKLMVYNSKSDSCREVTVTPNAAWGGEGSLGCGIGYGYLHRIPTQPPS
Chain of PDLIM1, O00151 (O00151 1-87): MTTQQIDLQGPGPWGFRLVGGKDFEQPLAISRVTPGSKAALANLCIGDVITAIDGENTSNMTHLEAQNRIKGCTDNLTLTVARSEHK
Chain of FRMPD2_1, Q68DX3 (Q68DX3 770-861): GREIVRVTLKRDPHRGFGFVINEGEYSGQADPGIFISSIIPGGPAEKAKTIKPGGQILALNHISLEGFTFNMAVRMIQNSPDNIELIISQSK
Chain of NHERF4_1, Q86UT5-2 (Q86UT5 other isoform, or with tags, fused parts or gaps): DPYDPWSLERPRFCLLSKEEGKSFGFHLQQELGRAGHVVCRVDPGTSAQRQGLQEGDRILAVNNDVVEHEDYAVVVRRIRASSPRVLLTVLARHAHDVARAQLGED
Chain of Inadl_4, Q8NI35 (Q8NI35 547-651): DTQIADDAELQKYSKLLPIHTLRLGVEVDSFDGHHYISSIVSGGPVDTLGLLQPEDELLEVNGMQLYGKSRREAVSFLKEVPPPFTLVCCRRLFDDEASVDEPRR
Chain of IL16_1, Q14005 (Q14005 210-306): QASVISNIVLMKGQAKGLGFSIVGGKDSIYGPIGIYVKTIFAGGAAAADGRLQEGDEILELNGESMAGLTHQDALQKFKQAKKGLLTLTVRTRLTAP
Chain of Inadl_3, Q8NI35 (Q8NI35 359-469): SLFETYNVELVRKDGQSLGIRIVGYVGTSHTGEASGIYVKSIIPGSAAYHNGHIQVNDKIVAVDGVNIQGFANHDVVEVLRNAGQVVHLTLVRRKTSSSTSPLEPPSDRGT
Chain of Inadl_1, Q8NI35 (Q8NI35 113-229): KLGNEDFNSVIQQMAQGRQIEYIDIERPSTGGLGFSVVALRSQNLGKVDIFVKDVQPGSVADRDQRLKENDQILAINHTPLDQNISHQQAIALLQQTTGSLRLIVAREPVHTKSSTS
Chain of NHERF4_4, Q86UT5 (Q86UT5 464-550): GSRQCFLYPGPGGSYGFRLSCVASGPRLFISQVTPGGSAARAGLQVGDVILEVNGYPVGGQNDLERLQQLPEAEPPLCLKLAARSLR

Row | Binder | pKd (APBA3_1, O96018) | pKd (DFNB31_1, Q9P202) | pKd (DLG2_2, Q15700) | pKd (DLG3_3, Q92796) | pKd (DVL3, Q92997) | pKd (FRMPD2_1, Q68DX3) | pKd (GORASP1, Q9BQQ3) | pKd (GORASP2, Q9H8Y8) | pKd (GRIP2_6, Q9C0E4) | pKd (IL16_1, Q14005) | pKd (Inadl_1, Q8NI35) | pKd (Inadl_3, Q8NI35) | pKd (Inadl_4, Q8NI35) | pKd (LRRC7, Q96NW7) | pKd (MPDZ_10, O75970) | pKd (MPDZ_5, O75970) | pKd (MPP7, Q5T2T1) | pKd (NHERF4_1, Q86UT5-2) | pKd (NHERF4_4, Q86UT5) | pKd (PDLIM1, O00151) | further results
1 | LKVPPEERLI [CRB2, Q5IJ48] | below the threshold | below the threshold | below the threshold | below the threshold | below the threshold | below the threshold | below the threshold | 3.62 | below the threshold | below the threshold | below the threshold | 3.6 | below the threshold | below the threshold | below the threshold | below the threshold | below the threshold | below the threshold | below the threshold | below the threshold | pKd (PDZRN3_1, Q9UPQ7): below the threshold; pKd (RHPN1, Q8TCX5): below the threshold; pKd (SCRIB_1, Q14160): below the threshold; pKd (SCRIB_3, Q14160): 3.75; pKd (SNTB1, Q13884): below the threshold; pKd (TJP1_2, Q07157): below the threshold
2 | ETQVTAETVI [TMEM225B, P0DP42] | below the threshold | 4.59 | 4.07 | below the threshold | below the threshold | below the threshold | 3.67 | 3.57 | below the threshold | below the threshold | below the threshold | 4.26 | below the threshold | below the threshold | below the threshold | below the threshold | below the threshold | below the threshold | below the threshold | below the threshold | pKd (PDZRN3_1, Q9UPQ7): below the threshold; pKd (RHPN1, Q8TCX5): 4.44; pKd (SCRIB_1, Q14160): 4.24; pKd (SCRIB_3, Q14160): 4.34; pKd (SNTB1, Q13884): 4.8; pKd (TJP1_2, Q07157): below the threshold
3 | SGSLKLMTTV [DACT1, Q9NYF0] | below the threshold | 3.56 | 5.24 | 4.2 | below the threshold | below the threshold | 3.56 | 4.32 | below the threshold | below the threshold | below the threshold | below the threshold | below the threshold | below the threshold | below the threshold | below the threshold | below the threshold | below the threshold | below the threshold | below the threshold | pKd (PDZRN3_1, Q9UPQ7): below the threshold; pKd (RHPN1, Q8TCX5): 4.58; pKd (SCRIB_1, Q14160): 3.98; pKd (SCRIB_3, Q14160): 3.59; pKd (SNTB1, Q13884): 3.64; pKd (TJP1_2, Q07157): below the threshold
4 | RKPKPSSSCC [RAB9A, P51151] | below the threshold | below the threshold | below the threshold | below the threshold | below the threshold | below the threshold | below the threshold | below the threshold | below the threshold | below the threshold | below the threshold | below the threshold | below the threshold | below the threshold | below the threshold | below the threshold | below the threshold | 3.81 | below the threshold | below the threshold | pKd (PDZRN3_1, Q9UPQ7): below the threshold; pKd (RHPN1, Q8TCX5): below the threshold; pKd (SCRIB_1, Q14160): below the threshold; pKd (SCRIB_3, Q14160): below the threshold; pKd (SNTB1, Q13884): below the threshold; pKd (TJP1_2, Q07157): below the threshold
5 | YRLAQESGLV [ABCC6, O95255] | below the threshold | below the threshold | below the threshold | below the threshold | below the threshold | below the threshold | below the threshold | below the threshold | below the threshold | below the threshold | below the threshold | below the threshold | below the threshold | below the threshold | below the threshold | below the threshold | below the threshold | 3.51 | below the threshold | below the threshold | pKd (PDZRN3_1, Q9UPQ7): below the threshold; pKd (RHPN1, Q8TCX5): below the threshold; pKd (SCRIB_1, Q14160): below the threshold; pKd (SCRIB_3, Q14160): below the threshold; pKd (SNTB1, Q13884): 3.57; pKd (TJP1_2, Q07157): below the threshold
